Results reported in patent US20220112288A1 (published 2022).

How the values were obtained:
[1] = biological target: T1, human CD8 on human pan T cells (CD4-negative population) (human, UniProt P01732 22-235; P10966 22-210); test: flow cytometry, 20 nM antibody on human pan T cells, A647 anti-human IgG Fc; geomean ratio in CD4-negative population
T1 construct: whole, on cells; Target is CD8 as it stands on primary human pan T cells

[2] = biological target: T2, human CD4 on cells (SKW3 cells; human PBMCs) (human, UniProt P01730 26-458); test: FACS confirmation, supernatant on SKW3 WT cells, anti-mFc 647 (Bkrd gMFI = 3300)
T2 construct: whole, on cells; SKW3 CD4 knockout cells served as the negative cell line for the WT vs KO ratios; also called hCD4; SKW3 WT

[3] = biological target: T2, human CD4 on cells (SKW3 cells; human …); test: FACS confirmation, supernatant on human PBMCs, anti-mFc 647, percent of viable cells
[4] = biological target: T2, human CD4 on cells (SKW3 cells; human …); test: SKW3 FACS binning; competitor OKT4a added after supernatant, anti-hu A647 secondary (background 5000, max binding 35000)
[5] = biological target: T2, human CD4 on cells (SKW3 cells; human …); test: FACS primary screen, non-clonal hybridoma supernatant; SKW3 WT vs SKW3 CD4 KO cells, anti-hKappa-FITC
[6] = biological target: T2, human CD4 on cells (SKW3 cells; human …); test: SKW3 FACS binning; competitor OKT4-A488 added after supernatant (background 2163, max binding 8200)
huCD4-HIS = biological target: T3, huCD4-HIS (human, UniProt P01730 26-390, limits assumed); test: ELISA binning; competitor Ibalizumab, 100 ng/mL huCD4-HIS, anti-HIS HRP detection (background 45, max binding 3000000)
T3 construct: Named only in the head of the ELISA binning column; not shown: HIS tag

[7] = biological target: T2, human CD4 on cells (SKW3 cells; human …); test: FACS confirmation, supernatant on human PBMCs, anti-mFc 647, CD4+ gate
[8] = biological target: T2, human CD4 on cells (SKW3 cells; human …); test: FACS primary screen, non-clonal hybridoma supernatant; SKW3 WT vs SKW3 CD4 KO cells, anti-mFc-647
[9] = biological target: T2, human CD4 on cells (SKW3 cells; human …); test: SKW3 FACS binning; competitor RPA-T4-PE-Dazzle 594 added after supernatant (background 783, max binding 15000)
[10] = biological target: T2, human CD4 on cells (SKW3 cells; human …); test: FACS confirmation, supernatant on SKW3 WT cells, anti-hu Kappa FITC (Bkrd gMFI = 2500)

T1 sequence (P01732 22-235, chain 1 of 2): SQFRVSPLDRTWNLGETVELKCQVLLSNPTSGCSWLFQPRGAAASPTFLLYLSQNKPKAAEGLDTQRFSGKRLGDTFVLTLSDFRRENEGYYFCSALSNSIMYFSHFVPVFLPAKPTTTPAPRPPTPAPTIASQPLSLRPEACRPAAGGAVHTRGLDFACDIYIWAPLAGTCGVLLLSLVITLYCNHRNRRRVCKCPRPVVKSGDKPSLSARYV
T1 sequence (P10966 22-210, chain 2 of 2): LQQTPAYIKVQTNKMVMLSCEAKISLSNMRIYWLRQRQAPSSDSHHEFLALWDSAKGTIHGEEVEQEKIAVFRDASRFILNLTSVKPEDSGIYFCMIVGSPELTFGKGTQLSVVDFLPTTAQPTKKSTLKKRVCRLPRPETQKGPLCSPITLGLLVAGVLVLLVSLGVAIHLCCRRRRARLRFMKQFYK

Cell Binding to Human PanT Signal/Background (of CD4 negative population) [1] | gMFI [2] | OKT4a anti-hu A647 signal in binning [4] | SKW3 WT vs KO anti-hKappa-FITC [5] | OKT4 A488 signal in binning [6] | Ibalizumab ELISA binning signal (huCD4-HIS) | CD4+ gate RL1 Binding [7] | SKW3 WT vs KO anti-mFc-647 [8] | RPA-T4-PE-Dazzle 594 signal in binning [9] | gMFI [10] | Binder | CD4+ Percent Bound of Viable [3]
44 signal/background | – | – | – | – | – | – | – | – | – | CD8B245 (antibody, human IgG1, kappa, V domains shown, Full-length human IgG1, kappa) VH: EFQLQQSGGGLVQPGGSLSLSCAAPGFTFTDYYMSWVRQSPGKALEWLALSRNKGNGYTTEYSASVKGRFTISRDNSQSILYLQMNVLRAEDSATYYCARTVTGTLFYYALDYWGQGTTVTVSS VL: DIQMTQSPASLSASVGETVTITCRASENIYSYLAWYQQKQGKSPQFLVYNAKTLAAGVPSRFSGSGSGTQFSLKINRLQPEDFGTYYCQHHYGTPLTFGDGTRLEIKR | –
1610 signal/background | – | – | – | – | – | – | – | – | – | CD8B324 (antibody, human IgG1, kappa, V domains shown, Full-length human IgG1, kappa) VH: QVQLQQPGADLVKPGASVKLSCKASGYTSTSHWIHWVKQRPGQGLEWIGNIYPGSSSTNYNEKFKRMATLTVDTSSSTVYMVLSSLTSDDSAVYYCARHSPGHRDYAMDYWGLGTSVTVSS VL: DIVMTQSQKFMPTTVGDRVSITCKASQNVGTAVAWYQQKPGQSPKLLIASASNRYTGVPDRFTGSGSGTDFTLTISTMQSEDLADYFCQQYSTYPLTFGAGTKLEMKR | –
36 signal/background | – | – | – | – | – | – | – | – | – | CD8B186 (antibody, human IgG1, kappa, V domains shown, Full-length human IgG1, kappa) VH: QVQLQQSGAELAKPGASVKMSCKASGYIFTSYWMHWVKQRPGQGLEWIGNINPSSGYAVYNQKFKDKATLTADQSSSTAYIQLNSLTSEDSAVYYCARRVFYGDSWFAYWGQGTSVTVSS VL: DVQMIQSPASLSASVGETVTITCRASGNIHNYLAWYQQKQGKSPQLLVYNAKTLADGVPSRFSGSGSGTQYSLKINSLQPEDFGSYYCQHFWSTTWTFGGGTKLEIKR | –
22 signal/background | – | – | – | – | – | – | – | – | – | CD8B192 (antibody, human IgG1, kappa, V domains shown, Full-length human IgG1, kappa) VH: QVQLQQSGPVLVKPGASVKMSCKASGYTFTDYYMNWVMQSHGKSLEWIGVINPYNGGTTYNQRFTGKATLTVDKSSSTAYMELNSLTSEDSAVYYCARNYGAMDSWGQGTSVTVSS VL: DIQMTQSPASLSASVGETVTITCRASGNIHNYLAWYQQKQGKSPQLLVSNAKTLADGVPSRFGGSGSGTQYSLKINSLQPEDFGSYYCQHFWITPPTFGAGTRLEIKR | –
– | 13800 gMFI | 15900 | 1.9 fold | 9920 | 1.26e+06 | 241000 | 4.1 fold | 14000 | 5140 gMFI | 75110_03I23A (antibody, V domains shown, Tested as non-clonal hybridoma supernatant (AlivaMab Mouse Kappa), detected with anti-mouse Fc and anti-human kappa) VH: QVQLQESGPGLVKPSETLSLTCTASGGSITSYYWNWIRQPAGKGLEWIGRIYTSGSTNYNPSLKSRVTMSVDTSKNQFSLKLSSVTAADTAVYYCARDPGYSDAFNIWGQGTMVTVSS VL: not shown | 28%
1980 signal/background | – | – | – | – | – | – | – | – | – | CD8B337 (antibody, human IgG1, kappa, V domains shown, Full-length human IgG1, kappa) VH: QVTLKESGPGKVQPSQTLSLTCSFSGFSLSTSGMGVSWIRKPSGKGLEWLAHIFWDDDRRYKSSLKSRLTISKDTSSNQVFLMITSVDTADSATYYCARRVGYGDYAYFDVWGAGTTVTVSS VL: DIQMTQYPASLSVSVGETVTITCRASENIYSDLAWYQQKQGKSPQLLVYAATNLADGVPSRFSGSGSGTQYSLKINSLQSEDFGNYYCQHFWGTPWTFGGGTKLEIKR | –
– | 38800 gMFI | 35500 | 3.2 fold | 9100 | 1.64e+06 | 227000 | 9.4 fold | 16500 | 8320 gMFI | 75110_05E05A (antibody, V domains shown, Tested as non-clonal hybridoma supernatant (AlivaMab Mouse Kappa), detected with anti-mouse Fc and anti-human kappa) VH: QVQLQESGPGLVKPSETLSLTCTVSGGSIGSYYWSWIRQPAGKGLEWIGRIYTSGSTNYNPSLKSRVTMSFDTSKNQFSLKLNSVTAADTAVYYCATDGGVGDSLDYWGQGTLVTVSS VL: DIVMTQTPLSLPVTPGEPASISCRSSQSLLDSDDGNTYLDWYLQKPGQSPQLLIYTLSYRASGVPDRFSGSGSGTDFTLKISRVEAEDVGVYYCMQHIEFPFTFGPGTKVDIK | 28%
61 signal/background | – | – | – | – | – | – | – | – | – | CD8B250 (antibody, human IgG1, kappa, V domains shown, Full-length human IgG1, kappa) VH: QVQLKESGPGLVAPSQSLSITCTVSGFSLSNYVVHWVRQSPGKGLEWLGVIWTDGSTDYNAAFISRLSISKDNSKSQVFFKMNSLQADDTAIYYCARNNGYFPAFFAYWGQGTLVTVSA VL: DIVMTQSQKFMSTSVGDRVSVTCKASQNVDTDITWYQQKPGQSPKALIYSASYRYSGVPDRFTGSGSGTDFTLTITNVQSEDLAEYFCQQYNSYPLTFGSGTKLEMKR | –
20 signal/background | – | – | – | – | – | – | – | – | – | CD8B248 (antibody, human IgG1, kappa, V domains shown, Full-length human IgG1, kappa) VH: EVQLQQSGAELARPGASVKMSCKASGYTFTTYTMHWVKQRPGQGLEWIGYINPSSGYTKYNQKFTDKATLTADKSSSTAYMQLSSLTSEDSAVYYCARLWAYWGQGTLVTVSA VL: DVVMTQTPLSLPVSLGDQASISCRSSQSLVHSSGNTYLHWYLQKPGQSPKLLIYKGSNRFSGVSDRFSGSGSGTDFTLKISRVEAEDLGVYFCSQSTHVPFTFGSGTKLEMKR | –
23 signal/background | – | – | – | – | – | – | – | – | – | CD8B254 (antibody, human IgG1, kappa, V domains shown, Full-length human IgG1, kappa) VH: EVQLQQSGAELVKPGASVKMSCKTSGYTFSSYWITWVKQRPGQGLEWVGDIYPGSGSTNYNEKFKSKAALTVDTSSSTAFMQLNSLTSEDSAVYYCARESITTRITPFDHWGQGTTLTVSS VL: DVVMTQTPLSLPVSLGDQASISCRSSQSLVHSSGNTYLHWYLQKPGQSPKLLIYKGSNRFSGVSDRFSGSGSGTDFTLKISRVEAEDLGVYFCSQSTHVPFTFGSGTKLEIKR | –
– | 24800 gMFI | 32200 | 3.3 fold | 8730 | 1.99e+06 | 296000 | 10.3 fold | 15800 | 6660 gMFI | 75110_02K11A (antibody, V domains shown, Tested as non-clonal hybridoma supernatant (AlivaMab Mouse Kappa), detected with anti-mouse Fc and anti-human kappa) VH: QVQLQESGPGLVKPSQTLSLTCTVSGGSISSGFYYWTWIRQHPGKGLEWIGYISYSGNTYYNPSFKSRLTISVDTSKSQFSLKLSSVTAADTAVYYCARDRPSNFDAFDIWGQGTMVTVSS VL: not shown | 29%
– | 27200 gMFI | 34000 | 1.6 fold | 9440 | 1.89e+06 | 302000 | 2.9 fold | 16800 | 7430 gMFI | 75110_04H17A (antibody, V domains shown, Tested as non-clonal hybridoma supernatant (AlivaMab Mouse Kappa), detected with anti-mouse Fc and anti-human kappa) VH: QVQLQESGPGLVKPSETLSLTCTVSGGSISTYYWSWIRQSAGKGLEWIGRIYTSERPNYNPSLKSRVTMSVDTSKNQFSLKLNSVSAADTAVYYCARELERPYYYGMDVWGQGTTVTVSS VL: DVQMTQSPSSLSASVGGRVTITCQASQDISNYLNWYQQKPGKAPKLLIYYASNLETGVPSRFSGSGSGTDFTFTISSLQPEDFATYYCQQYDNLPLTFGGGTKVEIK | 30%
318 signal/background | – | – | – | – | – | – | – | – | – | CD8B366 (antibody, human IgG1, kappa, V domains shown, Full-length human IgG1, kappa) VH: EVQLQQSGPELVRPGASVKLSCTASGFNIKDDYIHWVKQRPEQGLEWIGRIDPANGNPRYAPKFQDKATLTADTSSNTAYLQLSSLTSEDTAVYYCARDDEGYYYFDVWGAGTSVTVSS VL: DIKMTQSPSYLAASPGETITINCRASKSISKYLAWYQEKPGKTNKVLIYSGSTLQSGIPSRFSGSGSGTDFTLTISSLEPEDFAIYYCQQHNEYPLTFGDGTRLEIKR | –
– | 21900 gMFI | 29200 | 2.3 fold | 7370 | 2.11e+06 | 174000 | 4.5 fold | 17100 | 6790 gMFI | 75110_04D20A (antibody, V domains shown, Tested as non-clonal hybridoma supernatant (AlivaMab Mouse Kappa), detected with anti-mouse Fc and anti-human kappa) VH: QVQLQESGPGLVKPSETLSLTCTVSNGSISDYYWSWIRQPAGKGLEWIGRIYTSGSTNYNPSLKSRITMSVDTSKNQFSLELSSVTAADTAVYYCARELERYYFYGVDVWGQGTTVTVSS VL: not shown | 28%
